The series can be described thus: soluble on expression in E. coli; label from the status in PepcDB or PDB records.
In the case of “MAHHHHHHMGTLEAQTQGPGSMFITFEGIDGSGKTTQSHLLAEYLSEIYGVNNVVLTREPGGTLLNESVRNLLFKAQGLDSLSELLFFIAMRREHFVKIIKPSLMQKKIVICDRFIDSTIAYQGYGQGIDCSLIDQLNDLVIDVYPDITFIIDVDINESLSRSCKNGYEFADMEFYYRVRDGFYDIAKKNPHRCHVITDKSETYDIDDINFVHLEVIKVLQMV”, the “soluble on expression in E. coli” value is on record as “soluble”. In the case of “MSLDAVDGVRLEEGDAIDWIVFDRPQAANSFSATLLEQFSALVKDRQANGAPVLGIRGSGRGFSSGMDLGEYNATSGPTSDVLRLSSYVERWLDLWRHPKPVIVAVHGYCIGVAAQLASFADILVVAEDAMISEPTIPIGGGFIAPTWVSHVGSRHAKEFAFLPGNRIDGRMAAAWGWANCAVPASEVIACCESLAQRMKLMPPAVLAMKKRSINRAMEAAGFHAAASAIAESDALLHLEPEVTAIRNRLRTEDLKAVVGSYAGESSQEIFQREGHHHHHH”, the “soluble on expression in E. coli” value is given as “soluble”. As for “MGSDKIHHHHHHVACKPKEKPSSATSLTDDALMDTVQRRTFNYFWDAAEPNSGLARERYHMDGEYPAGGPEIVTSGGSGFGIMAILAGIDRGYVSREEGLRRMEKIVGFLEKADRFKGAYPHWWNGETGHVQPFGQKDNGGDLVETAFLMQGLLAVHQYYAEGSAEEKKLAGRIDKLWREVDWNWYRHGGQNVLYWHWSPEYGWEMNFPVHGYNECLIMYILAAASPTHGVPAAVYHEGWAQNGAIVSPHKVEGIELHLRYQGGEAGPLFWAQYSFLGLDPVGLKDEYCPSYFNEMRNLTLVNREYCIRNPKHYKGYGPDCWGLTASYSVDGYAAHGPLERDDRGVISPTAALSSIVYTPDQSLQVMHHLYEMGDKVFGPYGFYDAFSETADWYPKRYLAIDQGPIAVMIENYRTGLLWKLFMSHPDVQNGLKKLGFNVKK”, the entry is “not soluble”; as for “MDTIIYYSEMEGISLEHLKRSSGYDMRSNHFHNEYEIYFLTEGERLFFFNNRAYQVKKGSLILVDTNLIHMTHAPEDDTTGYTRIILYIDKFKMQQFDEKFPHLNLVPFFREHYGVYNLTQKQQEKFLHMYEVLKTEFSNRSRSYKALIEMEIIHYFIDFIRDNPELTPIKDETAIHKSSKYQ”, “not soluble”. As for “MGSDKIHHHHHHMNLVAHAQNTEPFEGVMKWAITVDIVDSKVADSYQTEIQSEDNSEVNQAIKELEQQLKDPEMQEMLLENPTIKNSMLKKLQQLKAAQTTNQENSTNSIFPSALSIFLKNNNSFTKIDGGSMVKLTGNMLYLNTNKNTYFIKDKTSTYSVINDTARLNTNDSLIALIATTDTTMILDCICIKYILTTKENNEIKTSYIWITNDLPSMNSAAFRSLGFMDGNLHHEAFKEMKGIPMRIEIFEKGLKMNMEVSEISMELVADTYFTIPSNYRESPFGF”, the entry is “not soluble”.

Regarding “MPSIYKSVTINTSKEMMCFSDFPVPDHFPNYMHNSKLMDYFGMYATHFGLLNYIRFKTEVQSVRKHPDFSINGQWDVVVETEEKQETLVFDGVLVCSGHHTDPYLPLQSFPGIEKFEGCYFHSREYKSPEDFSGKRIIVIGIGNSGVDIAVELSRVAKQI”, the “soluble on expression in E. coli” value is listed as “not soluble”. In the case of “MGSDKIHHHHHHMAIEHYWDQALERSTAAQLNGALVPLSTELTRIRARQGEPFELRKLKGHPPSHLLARGPKPNPFLPWDPSLEVSEIGMRHVLILNKYPVQKGHMLLITREWAPQHGWLSYDDWEALLSVDQDTKGLWFFNSSPTAGASQPHRHLQLLRRCDDDRSCPRQEWFQSLVNSSPRESCQLTQCCAATARAQNHDAQIHYQAYLTLCEKIGLGNPAENQHPRQPYNLLLTKEWMALILRSREGIAGFSINALGFAGYLLATETSDLDWLNHHGPEALLEGVVKTIQ”, the “soluble on expression in E. coli” value is “not soluble”.

With “MSNVMDLNLIQTFLVVAEFQSYTKAAEQLGLTQPAVSAAIKRLEQVVDKQLFVKKGRGITLTSAAYQLLPQFEQAVSIIDNAIMEKKHFEVCCSEILLHIMSPIKNAIFYESPPEKYILFELLRQQKVDLVIDTVVTKDAAFVMEEAYEEKAVIICREQHPRIQGTLSKEQFYDETHCLFSGKWNNMSGFEQLAQETILER”, the “soluble on expression in E. coli” value is given as “not soluble”. With “MEFSMNATVEQLAPVEQQATTDWVVAALYQFKEVADAADLQQRLLDLVKTINLCGTLIVASEGINGTVAGDRHAIDTIREFLLNEGFHAMEYKESHSAEKPFRKMKIKLKQEIVTLGVEVKPRDLVGHYLDPKEWNELISRDDVILVDTRNDYEYKAGTFKGAIDPKTETFREFPDYVKQNLEQHKDKKIAMFCTGGIRCEKSTSLLLQEGFNEVYHLKGGILKYLEETPAEESLWEGECFVFDGRTAVTHGVEEGQNVKCHACGWPLTPEEVALPSYEHGVSCVYCIEKTTEKQKEGFRMRQSQIAAAKRKRLLEHHHHHH”, the “soluble on expression in E. coli” value is listed as “soluble”.

In the case of “MVDQQDTFAEYFKNWYIFYKKPKVSKVTLNRYQYTYNVINEYFGNKLLKDITRANYQKFIVKYGQNHSPNTMKMINNCIKACVKNAVYDEEIKKDFTYNIELISNRDNVVQLEHHHHHH”, the “soluble on expression in E. coli” value is recorded as “soluble”. As for “HLDGRGAAMMEMAGLAQKGGAVQIHCRIAEKPSDISAIRVAVGEADGVIGGDLVVTAGAKTLGLMSQGRTGAVVNSHDIVTGEFTRNTDFRVPSDRLQVSLQARLQDRVAFLDATELARILMGDSIYSNMMVFGAAWQRGLIPLSAEAIQRAIELNGAAVAQNARAFALGRWAVL”, the entry is “not soluble”. For “MGSDKIHHHHHHMAFNIDGSGNKSGVRSNMLSENNILKYGSNFSKANASSLNNKINSLNYTVEYINNELMGIFFRQGLKFGIFKAVEDFRPTISELITILGYPNEEFVEKYIKTAVSLNLLNLNEEERLELNSDFIYSSIHPEYDKIISDHVSRYDFMSGLVQYAFIGYDHPEILLNFKKDADIWDMMLNTKYMKTCREVISEYLDIKNGDTILEVGCGSRSPLYFASKVAPNGEYVGVDISKKLIRVAQGRLKRSGIECAKLKALDFSETIAKNKHDYVLCIHTLSYADSLKLFLKKMMGSLRKGGKLVIMEEFFTENINTNAELFEFYNHLNKYFKNYVSKTEILKELELIGIDYKYELLGDNCIVVERI”, the “soluble on expression in E. coli” value was “not soluble”. With “GPGSMLHPYIAGFDGLTCVAGTPADTLARNPDTGTTGRGTGSGVEGVFGTSLDVAGQLAGFETLTSASLNNNFLYDGLPSSGVTLREPLLSTHLTRSPTTLSTVGEAAMQPTQNPTQTPQQDPLPDLNTLATNAFFPFPSAAGAASAEGGQQQMATANLYGASQLESIMKASAGDGKSASTAPEPAANNLLGRLTVSTLAAQSATPGTSPQSQPCPVPQFTPLGAGACSNASRSSAPSYSSASVPIGCGPQMCSGDTSFLYPNFVNEMSSVTPPQSVQGHTEGFVAGVTTPPAMPMNSSTMSNKGGSMNDNTSTSLSQATSSGIATSSGQPNDVEVRSNLFVCGLPVSVRDKELLELFEKHGEIESAKVMLDIHTGRIRGIAFVKFKNVEHAENAVDALNGTTVNGHQITVRVANSRAAYLPGNPTNKTFVRNVPLTVSRTTLFEYFAQFGEVTDLSIKSDTAQGRHNPSGRSASTTEDGADDKLNIVFITYSTKEAAAKAAEATHTKTPFKECNGVPLLAKVAEDTVRRMERLSRRQRPATGAEGTREVSTSSSSTNVASMSRFAAPSMGAALPTGMMMPPMMPMAGSFPPGTFVSVPTMGNTPDLTAPTMMPASVAGDHMTALRDASGNPIYSPAQPNPATATGGMAYAMPGNMAQPSIFFSAQPPPPAINQSPPQQSQQQPQAQPQTLYISTPNGFVPAPQQHQQQQQLPQPPPPQQQQPLQFFPAPPLLPQVPQQSQQTMPMPGAAPGQLVYMQTPNGSMMPVMYGGAQPATASMLPTQQMNPYFVMMGGQPPSNQ” the entry was “soluble”. As for “MAIKDLFNNFFLMDDEEEVESPEERQRRVVQNEENETNNVQQNQPQQSERSYSNQSKLKTVPQKKTTRNYNSEERNVRMNQPPSKSNGKNVVTMNQTSQSYSGYESSKMCLFEPRVFSDTQDIADELKNRRATLVNLQRIDKISAKRIIDFLSGTVYAIGGDIQRVGTDIFLCTPDNVEVAGSITDHIEQMESQHYELEHHHHHH”, the entry is “not soluble”; as for “MAHHHHHHMATTSSPAASETAVRTVWFDAIDATAAMISTDPLQPAAEYTADSYLPPLSLAGDQADFFAQLRELDRGFIEAAPSLFLPQMTLEEACHAKPSFYQTFLGEREITETTFQPLLLKQRDEAEQEADGSAMNGRHGARRRRQEAPVLPRGTAPLYGGFLGQEAMSPSTAVQRKPDFMPIILVPSAATAPLQLMNIKQFLEHGAYVDPATLYVDRETGVVNIRDSKPRSVIVKPGSFHDPHKYHVAFRQFRVVDDQDEVDDWSHVCGCIVEGKLWQLKGWYPHEQPQSRDPSRLFSRIRAFLAYFEEDKVPPQCREWNVQSLALTRNLLKDQVHIALASKFWEQLYTFLDEHPMFSRYTIPLTDERL”, “soluble”. With “MFHGIPATPGIGAPGNKPELYEEVKLYKNAREREKYDNMAELFAVVKTMQALEKAYIKDCVSPSEYTAACSRLLVQYKAAFRQVQGSEISSIDEFCRKFRLDCPLAMERIKEDRPITIKDDKGNLNRCIADVVSLFITVMDKLRLEIRAMDEIQPDLRELMETMHRMSHLPPDFEGRQTVSQWLQTLSGMSASDELDDSQVRQMLFDLESAYNAFNRFLHALEHHHHHH” the entry was “not soluble”; with “MFGFSNSDISVSSGHTSHLDEVLPQSMYMVDADGRMVRWSPWFRDRIAGFSDAEMASTDFLELIHPEDRALVRQRMRKILDQGVQDSLEVRIFLKGGPAFRWFLLMANRYEYAGHYFITGTGIDIT”, “not soluble”.

In the case of “MDYCCVGRNNNDSVPSEGTLLRVKTLMKMANHPRPGDIIQESLDELNVSLREFARAMEIAPSTASRLLTGKAALTPEMAIKLSVVIGSSPQMWLNLQNAWSLAEAEKTVDVSRLRRLVTQ”, the “soluble on expression in E. coli” value is “soluble”. As for “ARGHRHTCKVMVLKEEAAGSERALALDMREGQRVFHSLIVHFENDIPVQIEDRFVNAQVAPDYLKQDFTLQTPYAYLSQVAPLTEGEHVVEAILAEADECKLLQIDAGEPCLLIRRRTWSGRQPVTAARLIHPGSRHRLEGRFTK”, the entry is “soluble”. With “SQVARWLGLDIPSPPIGSLFGVEIPEETGTKLEERVVDASMLSHGDLLMNLSLRDEELVILVRRGEGYRVPKGRMHLQVGDVLLIVSEKNLSQTLTSGDPENHPGLLQRLKHRLLRR”, the “soluble on expression in E. coli” value was “not soluble”.

“MSLPDATVVKAFLLDLQHRICAGLEQLDGQASFAADSWTRAEGGGGTSRVLTQGAVFEQAGVNFSHVTGAAMPASATAHRPELAGRSFEAMGVSLVIHPKNPYIPTTHANVRFFIAHKDGAEPVWWFGGGFDLTPYYPFEEDVREWHQSAKNLCQPFGDDVYPKYKKWCDEYFFLPHRNETRGVGGLFFDDLNQAGFDKSFDFMQAVGNGFLTAYAPIVERRKDTDYGERERDFQLYRRGRYVEFNLVYDRGTLFGLQTGGRTESILMSMPPLVRWQYAYTPAAGSPEADLYDNYLKPRDWVLEHHHHHH”: the “soluble on expression in E. coli” value is given as “not soluble”.

Regarding “MPSRLSLIAALLLPLAVQAEPADTRALLADSLADSQAQVEAAEQAMRRSENKAVQLYAKRVLTEQQEFDHQLRALAGEKALALPSPRQTERQAAAPGGFDERGFLDAQIRQQDRLVARFEGIARDSADPDLRRFADEWLARFYHHRELADQLRSGRAD”, the “soluble on expression in E. coli” value is given as “not soluble”.

For “MNRSGQRLIVSAPRQIAFSTAVRQLSATPIQCQNESENSEPQKQGWISRLLKGQSMDPSSWQKQSHSSLLSNSELMYEFMTHNYRPGEQDAYLDAFGKYKNEMNQKNPSIELVGSWTCAYGRTRDQAIHLWRHNKGYEDVDSSISLHGKDSGIRAADNDVAKLCGRRKNLIVKSFSYWREPEQRPPNHVYDLRSYVLQPGTMIDWASAWAKGIQYRREANQDVGGFFAQVGQLYVVYHIWAYPSMSGRNDTRHATWAKPGWDATVANTVPLIKKMQSKILTPTKYSQLE”, the “soluble on expression in E. coli” value is recorded as “not soluble”.

The values are drawn from the DeepSol protein solubility set.
